Results published in article PMC3547664.

System: T1, PhoB (Bacteroides fragilis YCH46), ORF:3d02aa67
T1 sequence: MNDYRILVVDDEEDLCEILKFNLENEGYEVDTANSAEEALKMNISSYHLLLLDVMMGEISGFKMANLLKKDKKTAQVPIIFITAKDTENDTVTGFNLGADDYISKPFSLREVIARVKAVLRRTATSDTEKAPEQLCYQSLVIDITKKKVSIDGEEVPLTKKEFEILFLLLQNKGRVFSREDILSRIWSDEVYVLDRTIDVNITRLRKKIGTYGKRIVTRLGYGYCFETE
Assay: EMSA
Settings: EMSA: 50 mM Tris-HCl pH 7.5, 50 mM KCl, 10 mM MgCl2, 0.5 mM EDTA, 30 min at 25 C; 5% polyacrylamide gel. PS B and PS E promoter fragments (S55/S56, S57/S58 …)

GGAATGGCTGGTAATCAAGTGCCTTGACTGCATCTGCATTGGCTTCTCCGTATTGAAATGATGGAGCAGCATAAGTGACTTGGCATTGAACTCCTGTAACATAATCCGGATTTTCTCCATTAAGATTATATTTAAGAGGTACGTTGGACGATGTGAAGATTAACGACGTCAACGAAGTAGTACCTGTTCCACCGAAAATATTGCCGGTAGCATAAGGTACTTCTATATCGTCGTTATCCGATGCCACTTTGATAAACTTAATATCGATGCGTGATACAATGCGTTCCAGA (double strand) [BF3397 internal fragment]
binding: no binding
